Where “and” joins values, the source holds several entries; their conditions need not be identical. Equal values may be shown once.
How the values were obtained:
[1] = tested on: GHEQKRRE (SEQ ID NO: 113)
[2] = tested on: Z-Leu-Leu-Arg-AMC (SEQ ID NO: 60)
[3] = tested on: Tos-Gly-Pro-Lys-AMC (SEQ ID NO: 59)
[4] = tested on: Boc-Gln-Gly-Arg-AMC (SEQ ID NO: 54)
[5] = tested on: Z-Ala-Arg-Arg-AMC (SEQ ID NO: 62)
[6] = tested on: GGKA-dR-RL (SEQ ID NO: 119)
[7] = tested on: Boc-Phe-Ser-Arg-AMC (SEQ ID NO: 53)
[8] = molecular target: protein C inhibitor (PCI) (UniProt P05154)
Sequence of protein C inhibitor (PCI) (P05154 20-406): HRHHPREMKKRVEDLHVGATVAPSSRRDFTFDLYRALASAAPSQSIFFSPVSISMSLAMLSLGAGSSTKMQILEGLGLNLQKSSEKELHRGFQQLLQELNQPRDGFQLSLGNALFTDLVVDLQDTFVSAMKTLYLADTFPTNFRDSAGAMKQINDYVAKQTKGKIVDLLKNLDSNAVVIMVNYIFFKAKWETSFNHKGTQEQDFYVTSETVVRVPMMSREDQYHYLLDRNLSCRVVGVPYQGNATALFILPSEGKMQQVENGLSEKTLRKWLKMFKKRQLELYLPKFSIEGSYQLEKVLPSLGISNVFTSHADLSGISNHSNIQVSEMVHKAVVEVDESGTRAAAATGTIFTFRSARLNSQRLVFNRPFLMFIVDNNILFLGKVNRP

[9] = tested on: Z-Val-Val-Arg-AMC (SEQ ID NO: 61)
[10] = tested on: GAEQKRRL (SEQ ID NO: 103)
[11] = tested on: GGKAR-dR-L (SEQ ID NO: 122)
[12] = tested on: GHEQARRL (SEQ ID NO: 108)
Semenogelin II = Semenogelin II (UniProt Q02383)
Sequence of Semenogelin II (Q02383 24-582): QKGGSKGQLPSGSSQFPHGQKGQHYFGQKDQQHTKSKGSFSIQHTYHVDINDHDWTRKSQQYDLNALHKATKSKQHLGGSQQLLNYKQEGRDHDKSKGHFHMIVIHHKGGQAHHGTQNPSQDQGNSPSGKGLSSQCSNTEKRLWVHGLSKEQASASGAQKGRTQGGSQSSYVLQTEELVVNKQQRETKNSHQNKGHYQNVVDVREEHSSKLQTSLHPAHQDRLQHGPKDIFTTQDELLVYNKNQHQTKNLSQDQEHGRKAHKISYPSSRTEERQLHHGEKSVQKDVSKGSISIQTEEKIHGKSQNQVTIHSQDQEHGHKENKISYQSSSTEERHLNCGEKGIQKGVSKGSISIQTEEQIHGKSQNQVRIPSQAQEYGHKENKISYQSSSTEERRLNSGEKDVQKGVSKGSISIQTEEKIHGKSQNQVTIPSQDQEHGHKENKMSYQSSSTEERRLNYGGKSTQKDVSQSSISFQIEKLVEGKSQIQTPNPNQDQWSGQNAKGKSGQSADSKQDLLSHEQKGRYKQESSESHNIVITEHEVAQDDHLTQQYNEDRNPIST

[13] = tested on: GGKA-dR-dR-L (SEQ ID NO: 123)
[14] = tested on: boc-Val-Pro-Arg-AMC (SEQ ID NO: 56)
Semenogelin I = Semenogelin I (UniProt P04279)
Sequence of Semenogelin I (P04279 24-462): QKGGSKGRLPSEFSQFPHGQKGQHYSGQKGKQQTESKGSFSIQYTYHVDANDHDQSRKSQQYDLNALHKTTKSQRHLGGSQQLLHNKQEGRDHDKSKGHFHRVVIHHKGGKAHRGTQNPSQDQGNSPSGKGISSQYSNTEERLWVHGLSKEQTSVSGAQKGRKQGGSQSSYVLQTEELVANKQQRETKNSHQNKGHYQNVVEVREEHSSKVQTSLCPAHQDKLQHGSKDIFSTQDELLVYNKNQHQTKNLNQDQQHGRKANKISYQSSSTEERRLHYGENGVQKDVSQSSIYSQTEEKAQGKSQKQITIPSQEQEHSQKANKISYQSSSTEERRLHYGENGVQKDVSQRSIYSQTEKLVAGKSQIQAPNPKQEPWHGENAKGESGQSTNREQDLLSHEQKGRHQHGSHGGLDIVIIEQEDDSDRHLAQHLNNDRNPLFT

[15] = tested on: H-D-Val-Leu-Lys-AMC (SEQ ID NO: 57)
[16] = tested on: H-Pro-Phe-Arg-AMC (SEQ ID NO: 55)
[17] = tested on: Tos-Gly-Pro-Arg-AMC (SEQ ID NO: 58)
[18] = tested on: H-Arg-Gln-Arg-Arg-AMC (SEQ ID NO: 63)
[19] = tested on: GHEQKRR-dL (SEQ ID NO: 110)

“recombinant human glandular kallikrein 2 (hK2)” gave a hK2 Hydrolysis Rate (GSQNQRRL (SEQ ID NO: 73)) of 2100 FU/hr/m, a hK2 Hydrolysis Rate (GGKAHKL (SEQ ID NO: 121)) of 73.2 FU/hr/m and a hK2 Hydrolysis Rate (GHEAKRRL (SEQ ID NO: 95)) of 3320 FU/hr/m. It also gave a hK2 Hydrolysis Rate (GGGKAHRL (SEQ ID NO: 68)) of 4100 FU/hr/m, a hK2 Hydrolysis Rate [1] of 1470 FU/hr/m and an Activity (%) with 100 µM substrate, relative to H-Pro-Phe-Arg-AMC [2] of 7%. The Kcat [2] was 0.04 s⁻¹, the Kcat/km [2] was 567 M⁻¹ s⁻¹ and the Km [2] was 71 µM. The “substrate hydrolysis by hK2” value [3] was “NR”, the hK2 Hydrolysis Rate (GGKARRS (SEQ ID NO: 111)) was 1610 FU/hr/m and the hK2 Hydrolysis Rate (GGKARRL (SEQ ID NO: 105)) was 2170 FU/hr/m. For the same substance, the hK2 Hydrolysis Rate (GPAHQDHL (SEQ ID NO: 90)) was 48.1 FU/hr/m, the hK2 Hydrolysis Rate (GSYPSSHL (SEQ ID NO: 91)) was 24.7 FU/hr/m and the hK2 Hydrolysis Rate (GSYEERHL (SEQ ID NO: 84)) was 42.9 FU/hr/m. The “substrate hydrolysis by hK2” value [4] was “NR”, the hK2 Hydrolysis Rate (GGKHRRL (SEQ ID NO: 107)) was 2080 FU/hr/m and the Activity (%) with 100 µM substrate, relative to H-Pro-Phe-Arg-AMC [5] was 33%. The Kcat [5] was 0.12 s⁻¹, the Kcat/km [5] was 6000 M⁻¹ s⁻¹ and the Km [5] was 20 µM. For the same substance, the hK2 Hydrolysis Rate (GSYPSRRL (SEQ ID NO: 74)) was 2060 FU/hr/m, the hK2 Hydrolysis Rate (GSKGHFHL (SEQ ID NO: 81)) was 171 FU/hr/m and the hK2 Hydrolysis Rate (GGKARNL (SEQ ID NO: 118)) was 828 FU/hr/m. For the same substance, the hK2 Hydrolysis Rate (GGKARQL (SEQ ID NO: 116)) was 1020 FU/hr/m, the hK2 Hydrolysis Rate (GGGKAHHL (SEQ ID NO: 86)) was 70.2 FU/hr/m and the hK2 Hydrolysis Rate [6] was 494 FU/hr/m. The hK2 Hydrolysis Rate (GPAHQRRL (SEQ ID NO: 69)) was 4020 FU/hr/m, the hK2 Hydrolysis Rate (GKDVSGHL (SEQ ID NO: 85)) was 67.5 FU/hr/m and the “substrate hydrolysis by hK2” value [7] was “NR”. The hK2 Hydrolysis Rate (GGAKRRL (SEQ ID NO: 98)) was 2770 FU/hr/m, the hK2 Hydrolysis Rate (GGKSRRL (SEQ ID NO: 94)) was 3440 FU/hr/m and the “progress curves of Pro-Phe-Arg-AMC hydrolysis by 8 nM hK2 with 80, 40 or 16 nM PCI” value [8] was “The inhibitor of hK2 by PCI could be described by the slow-binding inhibition mechanism presented in Scheme 2”. For the same substance, the hK2 Hydrolysis Rate (GKDVSGRL (SEQ ID NO: 79)) was 243 FU/hr/m, the hK2 Hydrolysis Rate (GGQKRRL (SEQ ID NO: 96)) was 3270 FU/hr/m and the hK2 Hydrolysis Rate (GSKGHRRL (SEQ ID NO: 71)) was 2650 FU/hr/m. For the same substance, the hK2 Hydrolysis Rate (GGKAQRL (SEQ ID NO: 104)) was 2230 FU/hr/m, the hK2 Hydrolysis Rate (GGKAHRL (SEQ ID NO: 114)) was 1290 FU/hr/m and the “substrate hydrolysis by hK2” value [9] was “NR”. It also gave a hK2 Hydrolysis Rate [10] of 2330 FU/hr/m, a hK2 Hydrolysis Rate (GHEQKRRS (SEQ ID NO: 99)) of 2640 FU/hr/m and a hK2 Hydrolysis Rate (GSKGHFRL (SEQ ID NO: 70)) of 3030 FU/hr/m. The hK2 Hydrolysis Rate (GHEQKRRL (SEQ ID NO: 66)) was 5970 FU/hr/m and 3370 FU/hr/m, the hK2 Hydrolysis Rate (GSQNQVHL (SEQ ID NO: 92)) was 32.5 FU/hr/m and the hK2 Hydrolysis Rate (GKDVSRRL (SEQ ID NO: 72)) was 2320 FU/hr/m. The hK2 Hydrolysis Rate (GPAHQDRL (SEQ ID NO: 88)) was 75.3 FU/hr/m, the hK2 Hydrolysis Rate [11] was 49.6 FU/hr/m and the hK2 Hydrolysis Rate (GHEQKGHL (SEQ ID NO: 89)) was 1.3 FU/hr/m. The hK2 Hydrolysis Rate [12] was 1960 FU/hr/m, the hK2 Hydrolysis Rate (GGKQRRL (SEQ ID NO: 106)) was 2170 FU/hr/m and the “cleavage by hK2 (HPLC of fragments)” value (Semenogelin II) was “Cleavage of either Sg I or Sg II with hK2 results in generation of a multitude of peptides”. For the same substance, the hK2 Hydrolysis Rate (GSYEERRL (SEQ ID NO: 78)) was 325 FU/hr/m, the hK2 Hydrolysis Rate (GSNTEKHL (SEQ ID NO: 87)) was 80.5 FU/hr/m and the hK2 Hydrolysis Rate (GGGKARRL (SEQ ID NO: 67)) was 4780 FU/hr/m. For the same substance, the hK2 Hydrolysis Rate (GSNTERRL (SEQ ID NO: 77)) was 592 FU/hr/m, the hK2 Hydrolysis Rate (GGKAKRL (SEQ ID NO: 109)) was 1790 FU/hr/m and the hK2 Hydrolysis Rate (GHEQKGRL (SEQ ID NO: 76)) was 651 FU/hr/m. The hK2 Hydrolysis Rate [13] was 16.5 FU/hr/m, the hK2 Hydrolysis Rate (GSQNQVRL (SEQ ID NO: 82)) was 194 FU/hr/m and the Activity (%) with 100 µM substrate, relative to H-Pro-Phe-Arg-AMC [14] was 6%. For the same substance, the Kcat [14] was 0.0267 s⁻¹, the Kcat/km [14] was 567 M⁻¹ s⁻¹ and the Km [14] was 48 µM. For the same substance, the hK2 Hydrolysis Rate (GHEQKRRA (SEQ ID NO: 97)) was 3050 FU/hr/m, the hK2 Hydrolysis Rate (GGKARKL (SEQ ID NO: 112)) was 1600 FU/hr/m and the “cleavage by hK2 (HPLC of fragments)” value (Semenogelin I) was “Cleavage of either Sg I or Sg II with hK2 results in generation of a multitude of peptides”. The “substrate hydrolysis by hK2” value [15] was “NR”, the hK2 Hydrolysis Rate (GGKAKKL (SEQ ID NO: 120)) was 77.9 FU/hr/m and the Activity (%) with 100 µM substrate, relative to H-Pro-Phe-Arg-AMC [16] was 100%. For the same substance, the Kcat [16] was 0.917 s⁻¹, the Kcat/km [16] was 22900 M⁻¹ s⁻¹ and the Km [16] was 40 µM. For the same substance, the “rate of cleavage of 100 µM substrate by 1.6 pmol hK2” value [16] was 1.6 pmol of the hK2 preparation cleaved 50 pmol/min of the 100 µM substrate Pro-Phe-Arg-AMC, the hK2 Hydrolysis Rate (GSYPSSRL (SEQ ID NO: 75)) was 1460 FU/hr/m and the hK2 Hydrolysis Rate (GGKAFRL (SEQ ID NO: 102)) was 2370 FU/hr/m. For the same substance, the hK2 Hydrolysis Rate (GHAQKRRL (SEQ ID NO: 93)) was 3670 FU/hr/m, the “substrate hydrolysis by hK2” value [17] was “NR” and the hK2 Hydrolysis Rate (GGHKRRL (SEQ ID NO: 101)) was 2430 FU/hr/m. For the same substance, the hK2 Hydrolysis Rate (GGKKRRL (SEQ ID NO: 100)) was 2580 FU/hr/m, the “substrate hydrolysis by hK2” value [18] was “NR” and the hK2 Hydrolysis Rate (GGKANRL (SEQ ID NO: 115)) was 1110 FU/hr/m. It also gave a hK2 Hydrolysis Rate (GPLILSRL (SEQ ID NO: 83)) of 118 FU/hr/m, a hK2 Hydrolysis Rate [19] of 1690 FU/hr/m and a hK2 Hydrolysis Rate (GGKARHL (SEQ ID NO: 117)) of 939 FU/hr/m. For the same substance, the hK2 Hydrolysis Rate (GSNTEKRL (SEQ ID NO: 80)) was 256 FU/hr/m.

Reference: US20120309692
